# In patent US20060057623:
# Target: HDAC1 (histone deacetylase 1), wild-type (UniProt Q13547)
# Sequence (Q13547 whole entry): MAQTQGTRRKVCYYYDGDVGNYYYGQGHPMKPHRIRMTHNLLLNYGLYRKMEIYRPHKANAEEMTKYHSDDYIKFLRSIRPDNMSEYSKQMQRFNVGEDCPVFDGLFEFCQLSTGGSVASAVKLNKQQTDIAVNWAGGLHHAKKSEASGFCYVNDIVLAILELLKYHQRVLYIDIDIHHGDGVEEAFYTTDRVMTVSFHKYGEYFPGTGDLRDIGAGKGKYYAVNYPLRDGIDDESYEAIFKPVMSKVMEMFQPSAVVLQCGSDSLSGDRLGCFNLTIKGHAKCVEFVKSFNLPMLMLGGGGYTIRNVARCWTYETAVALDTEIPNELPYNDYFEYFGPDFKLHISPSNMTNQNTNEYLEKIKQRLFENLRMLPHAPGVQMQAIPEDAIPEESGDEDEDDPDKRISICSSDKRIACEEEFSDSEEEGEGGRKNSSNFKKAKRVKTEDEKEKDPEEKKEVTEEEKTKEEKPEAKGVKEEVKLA
substance,measurement,value
"SENP1 catalytically inactive mutant (R630L, K631M)",deacetylase activity of HDAC1 precipitates,expression of SENP1 mutant did not affect HDAC1's deacetylase activity
